Assay results as given in the supplement of paper PMC12042874.
± gives the uncertainty stated by the source.

Tests used:
[1] = amyloid nucleation score (Sup35N fusion, yeast selection) (log enrichment); library NNK2; higher = more nucleation; inactive = no reads after selection
Method in brief: (§1)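 Psi-negative yeast expressed Sup35N fused to peptides of 20 random codons. They were induced 24 hours with 100 μM copper sulfate, grown 7 days at 30°C without adenine and uracil, and their plasmid inserts from input and output were Illumina-sequenced. The nucleation score is the DiMSum log enrichment of output over input reads, centred on the mode score of non-aggregating sequences. Sequences with under 100 input reads were excluded.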

[2] = amyloid nucleation score (Sup35N fusion, yeast selection) (log enrichment); library NNK3; higher = more nucleation; inactive = no reads after selection
Method in brief: as §1

Substance: ARVNYLRTCKYASRNSFHRS
- amyloid nucleation score [1]: -0.913 ± 0.45

Substance: ARWWMSSKRR
- amyloid nucleation score [1]: 0.026 ± 0.65

Substance: ASALGRWFTPHVSFIKYGGA
- amyloid nucleation score [1]: 0.531 ± 0.49

Substance: ASCVVRGQYAQMVYCWRTLG
- amyloid nucleation score [1]: -0.072 ± 0.23

Substance: ASFMSISVYND
- amyloid nucleation score [1]: -0.32 ± 0.63

Substance: ASFQLELS
- amyloid nucleation score [1]: 0.438 ± 0.38

Substance: ASGCLASEDKMGVYLWVV
- amyloid nucleation score [1]: 0.171 ± 0.65

Substance: ASGSKDACGCATSCV
- amyloid nucleation score [1]: 0.86 ± 0.13

Substance: ASHLWDGRSAWHTVLSLPVT
- amyloid nucleation score [1]: 1.08 ± 0.18

Substance: ASIGY
- amyloid nucleation score [1]: 0.663 ± 0.22

Substance: ASIYNFYVLNSPFLF
- amyloid nucleation score [1]: 4.73 ± 0.081

Substance: ASLLSGFNFKSVRHGLRDLG
- amyloid nucleation score [1]: 0.568 ± 0.24

Substance: ASNAWDRLGSVPGFSRGRLR
- amyloid nucleation score [1]: -0.308 ± 0.48

Substance: ASNMIV
- amyloid nucleation score [1]: -0.563 ± 0.33

Substance: ASPLQPLSGYVIVRVAPSIT
- amyloid nucleation score [1]: 0.266 ± 0.51

Substance: ASQIDSLVRNRNCLNSTKIG
- amyloid nucleation score [1]: -0.23 ± 0.44

Substance: ASREWASSVVLW
- amyloid nucleation score [1]: 0.427 ± 0.29

Substance: ASVNSRSINSSGQFPPCFRK
- amyloid nucleation score [1]: -0.434 ± 0.61

Substance: ATMEGSAECVFTRDIKIFRH
- amyloid nucleation score [1]: inactive

Substance: ATMVSPTSQLAPNMYNASLT
- amyloid nucleation score [1]: 5.97 ± 0.085

Substance: ATYAGMFMEEMPEHYFVWGT
- amyloid nucleation score [1]: 0.356 ± 0.74

Substance: ATYNCVHRWGIFTSAYGSKC
- amyloid nucleation score [1]: -0.653 ± 0.56

Substance: AVDFKQDNHKYVNSLTDMGA
- amyloid nucleation score [1]: 0.034 ± 1.1

Substance: AVFSSVLGYNA
- amyloid nucleation score [1]: 0.257 ± 0.56

Substance: AVGNMDVQEGFTTSRADRGL
- amyloid nucleation score [1]: 0.913 ± 0.21

Substance: AVKCVVEVTPWLDVKIKSFY
- amyloid nucleation score [1]: -0.735 ± 0.55

Substance: AVLLTMWYLNICTHIWVQTL
- amyloid nucleation score [1]: 0.139 ± 0.33

Substance: AVSHCMDDSFWGAIHKRLLY
- amyloid nucleation score [1]: 3.63 ± 0.15

Substance: AVVFGRGPSGYTHPMFRWPC
- amyloid nucleation score [1]: -0.754 ± 1.1

Substance: AWFCREKGNGFFFM
- amyloid nucleation score [1]: inactive

Substance: YSGSNITTHNVFNETGDWSG
- amyloid nucleation score [2]: inactive

Substance: YSLCACSYYVNVVNNRVVSV
- amyloid nucleation score [2]: 1.39 ± 0.073

Substance: YSLCLGIAHVRMSTARYYLA
- amyloid nucleation score [2]: inactive

Substance: YSMSILFRYHLNGVRYGMTG
- amyloid nucleation score [2]: inactive

Substance: YSQLCFF
- amyloid nucleation score [2]: inactive

Substance: YSRFDWVNLVIVGHYRTLFS
- amyloid nucleation score [2]: inactive

Substance: YSRLEFKRWHVVIDSWRWMD
- amyloid nucleation score [2]: inactive

Substance: YSRSTWVRIWFLLVSLLPVG
- amyloid nucleation score [2]: inactive

Substance: YSSLLWCKIES
- amyloid nucleation score [2]: inactive

Substance: YSSVTTIVVPSLNAYILNCR
- amyloid nucleation score [2]: inactive

Substance: YSTMRS
- amyloid nucleation score [2]: inactive

Substance: YSTVYIGSQVRVDDTLSMSA
- amyloid nucleation score [2]: inactive

Substance: YSYIEGL
- amyloid nucleation score [2]: inactive

Substance: YTGSMAGSTYLTGKLSLDDR
- amyloid nucleation score [2]: inactive

Substance: YTMLFLLLSWNVFFISWCCF
- amyloid nucleation score [2]: inactive

Substance: YTRLRNVDTRAFMDSPDILW
- amyloid nucleation score [2]: inactive

Substance: YTVLWDLVFWGTPICYVIDN
- amyloid nucleation score [2]: inactive

Substance: YTYQTLLADLNKGFMYSRRW
- amyloid nucleation score [2]: inactive

Substance: YVDCYRFAVMQEFPCQYRGD
- amyloid nucleation score [2]: inactive

Substance: YVDLAGLMLMADMA
- amyloid nucleation score [2]: inactive

Substance: YVDTAHHGSFENLECVEGLC
- amyloid nucleation score [2]: inactive

Substance: YVFDHDIGQ
- amyloid nucleation score [2]: inactive

Substance: YVFLRVEILEKLQQV
- amyloid nucleation score [2]: -0.522 ± 0.84

Substance: YVGFVARVVRDYNGYQRDTC
- amyloid nucleation score [2]: inactive

Substance: YVGPKMFLVWVCDATDVGKW
- amyloid nucleation score [2]: inactive

Substance: YVGYIDRWSSCYKVFWV
- amyloid nucleation score [2]: inactive

Substance: YVILGIRGKGWVFYQRAP
- amyloid nucleation score [2]: inactive

Substance: YVLCFVVELWIGFSDDWISW
- amyloid nucleation score [2]: inactive

Substance: YVNRYLLYFSFFTFANMCGS
- amyloid nucleation score [2]: 2.05 ± 0.055

Substance: YVNVYGSQMVYSKSQGHFPD
- amyloid nucleation score [2]: inactive

Substance: YVQSLNR
- amyloid nucleation score [2]: inactive

Substance: YVRLWVEDWETFSKMGSQIL
- amyloid nucleation score [2]: inactive

Substance: YVSDD
- amyloid nucleation score [2]: inactive

Substance: YVSHVSISVSSMLCYGGQSW
- amyloid nucleation score [2]: 1.93 ± 0.096

Substance: YVSPKSIVLIPCYTMRKTRY
- amyloid nucleation score [2]: inactive

Substance: YVTLYLDTGSCYLSLGCGAG
- amyloid nucleation score [2]: 0.758 ± 0.22

Substance: YVVELLVDSGYVPLCTTGQG
- amyloid nucleation score [2]: inactive

Substance: YVWIDYSSVYMD
- amyloid nucleation score [2]: inactive

Substance: YVWLGDLMSVRCYYWVTW
- amyloid nucleation score [2]: inactive

Substance: YVYDCYAAQHVY
- amyloid nucleation score [2]: -0.213 ± 0.77

Substance: YVYGKNGARGDSIREMGPSE
- amyloid nucleation score [2]: inactive

Substance: YWFGWKGGRSVRRVSWSADW
- amyloid nucleation score [2]: 0.13 ± 0.66

Substance: YWMMY
- amyloid nucleation score [2]: inactive

Substance: YWNYQMVCFCVNCV
- amyloid nucleation score [2]: 2.17 ± 0.075

Substance: YYCEFGLFELKQTYCRLFWG
- amyloid nucleation score [2]: inactive

Substance: YYCSDLSRSMDRSLRSTWPF
- amyloid nucleation score [2]: inactive

Substance: YYNAGAGKRRYNRSVRGSLK
- amyloid nucleation score [2]: inactive

Substance: YYNSGSLNTYPVNLNLDNFH
- amyloid nucleation score [2]: inactive

Substance: YYPSEQTIGWPKLTFVDVVL
- amyloid nucleation score [2]: inactive

Substance: YYRFLQWSGGNLWTPRWAPC
- amyloid nucleation score [2]: inactive

Substance: YYSKPPCVLTDVGLIWLRPY
- amyloid nucleation score [2]: inactive

Substance: YYVLPASG
- amyloid nucleation score [2]: inactive

Substance: YYYYDRCMRPVHSGKGVKLW
- amyloid nucleation score [2]: inactive
